The source of these data is patent EP2842965A1, “Neuromedin U analogs comprising serum albumin binding amino acid residue” (Gubra ApS, priority 2013, dated 2015).

Starred links: 1 amine or outer side, 2 acyl side, 3 side chain; linkers in the order of their positions; H or OH if unused. Residues, ends and D or L forms follow the SMILES beside them. Groups on a side chain read outwards from the residue. No end group written: not given here. *: point of attachment. γGlu = O=C(O)[C@H](CCC(=O)[*:2])N[*:1]; Palmitoyl = CCCCCCCCCCCCCCCC(=O)*

For experiment [1], the target named is T1, Neuromedin U receptor 2 (NMUR2) (Homo sapiens, UniProt Q9GZQ4).
T1 construct: expressed in transfected cells; host or cells: HEK293 cells, transient calcium phosphate transfection; the empty-vector control is pcDNA3
Description: Functional assay (IP3 SPA-ysi assay) in HEK293 cells transfected with NMUR2. In kind it is cell-based. The settings on record: HEK293 cells transiently transfected with NMUR2; head says cAMP, method describes IP3 SPA readout. Here is the method: All compounds were dissolved in dimethyl sulfoxide (DMSO), and then water was added (total DMSO conc. was 80%). The stock concentration was 1 mM for all the compounds. Stocks were alliquoted and frozen -20°C.
The day before each assay a new standard row was prepared by dilution of the stock solution in assay buffer (1 mM acetic acid + 0.1% bovine serum albumin (BSA)). The following concentrations were prepared (depending on the ligand potency): 10^-5, 10^-6, 10^-7, 10^-7.5, 10^-8, 10^-8.5, 10^-9, 10^-10, 10^-11, 10^-12 M.
Cell cultures: The HEK293 cells are grown in (DMEM31966 glutamax supplemented with 10% FBS (fetal bovine serum) and 1% penicillin G and streptomycin) and incubated at 37°C with 10% CO2 in a humidified atmosphere. The cells were split as follows. HEK293 cells approximately 80% confluent was used. The cells were removed from the bottom of the bottle by removing the media (DMEM31966 glutamax supplemented with 10% FBS and 1% penicillin G and streptomycin), rinsed with 5 mL phosphate buffered saline (PBS) and shaken gently. The PBS was removed and cells were released from the bottom with trypsin (1-2 mL) and incubated for 2-3 min. The flasks were then turned gently to ensure complete release of the cells from the bottom. Then media was added to the cells, (5-8 mL was used to rinse the cells of the bottom, this process was repeated approximately 4 times using the same media). Cell suspension was then transferred to a new bottle (approximately 4 × 10^6 cells per 175 cm^2 flask) and 20 mL media was added. Cells were incubated at 37°C with 10% CO2 in a humidified atmosphere.
Transfection of cells: HEK293 cells were seeded out at the density of 8 × 10^6 cells per 175 cm^2 flask 1 day prior to the transfection. Before transfection of cells, the culture medium was aspirated and half of the standard volume was added. 40 µg receptor-containing plasmid (Neuromedin U receptor 1 (NMUR1) or Neuromedin U receptor 2 (NMUR2)) or "empty" vector plasmid (pcDNA3), as a negative control, was mixed with 60 µL […] CaCl2 and Tris-EDTA (TE) buffer (10 mM tris(hydroxymethyl)aminomethane hydrochloride (Tris HCl), 1 mM ethylenedinitrilotetraacetic acid (EDTA), pH 7.5) to a total volume of 480 µL. The mixture was added drop-wise to another tube containing 480 µL 2 × HEPES buffered saline (HBS buffer) (280 mM NaCl, 50 mM 4-(2-Hydroxyethyl)piperazine-1-ethanesulfonic acid (HEPES), 1.5 mM NaHPO4, pH 7.2) and left for 45 min at room temperature for DNA precipitation. Afterwards, the precipitate was added carefully to the cells and cells were incubated for 5 hours at normal culture conditions. The transfection was stopped by change of the DNA-containing medium with 20 mL of fresh cell culture medium.
Seeding of the cells in 96 well plates: One day after transfection, cells were harvested using trypsin as described above. The cells were seeded in a poly-D-lysine coated clear 96 well plate. 100 µL cell suspension 350.000 cells/mL was added. 3H-myo-inositol (5µL/mL) was added to each well yielding a concentration of 35000 cells/well. The cells were incubated overnight before assay procedure the following day.
IP3 SPA-ysi assay: The media was removed and the plates were washed with 200 µL of Hank's balanced salt solution (HBSS) (Gibco, Life Technologies). 100 µL of HBSS/10 mM LiCl was added and the plates were incubated 15 min at 37°C. 5 µL ligand was added to each well and the plate was incubated at 37°C for 70-90 min (incubation time was approximately 1 h and 16 min for all plates). The plates were placed on ice and 50 µL formic acid (10 mM) was added to each well. The plates was left on ice for at least 30 min. 20 µL was then transferred to a white 96 well plate and 80 µL yttrium silicate (YSi) SPA-beads RPNQ0010 (Perkin Elmer) solution (0.0125 g/mL) is added to each well. The plates were sealed and shaken on high speed for 30 min, then centrifuged for 5 min at 1500 rpm and counted with 8 hours delay in the top counter. […]

A further experiment deals with T2, Neuromedin U receptor 1 (UniProt Q9HB89 1-426, limits assumed).
T2 sequence (looked up): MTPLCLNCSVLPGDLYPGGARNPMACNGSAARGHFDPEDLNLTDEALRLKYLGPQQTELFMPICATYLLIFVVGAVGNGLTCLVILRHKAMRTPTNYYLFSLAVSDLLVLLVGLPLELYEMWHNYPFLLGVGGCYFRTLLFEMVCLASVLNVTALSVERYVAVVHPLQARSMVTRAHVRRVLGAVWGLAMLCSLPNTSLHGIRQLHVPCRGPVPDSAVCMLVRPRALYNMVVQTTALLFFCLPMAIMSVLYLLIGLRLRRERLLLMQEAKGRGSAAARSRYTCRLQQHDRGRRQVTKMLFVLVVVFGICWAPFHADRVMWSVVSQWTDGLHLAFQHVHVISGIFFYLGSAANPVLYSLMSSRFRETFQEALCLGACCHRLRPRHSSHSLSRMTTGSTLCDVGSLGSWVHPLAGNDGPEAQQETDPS
Description: cell-based or functional assay.

T1 sequence (Q9GZQ4 whole entry): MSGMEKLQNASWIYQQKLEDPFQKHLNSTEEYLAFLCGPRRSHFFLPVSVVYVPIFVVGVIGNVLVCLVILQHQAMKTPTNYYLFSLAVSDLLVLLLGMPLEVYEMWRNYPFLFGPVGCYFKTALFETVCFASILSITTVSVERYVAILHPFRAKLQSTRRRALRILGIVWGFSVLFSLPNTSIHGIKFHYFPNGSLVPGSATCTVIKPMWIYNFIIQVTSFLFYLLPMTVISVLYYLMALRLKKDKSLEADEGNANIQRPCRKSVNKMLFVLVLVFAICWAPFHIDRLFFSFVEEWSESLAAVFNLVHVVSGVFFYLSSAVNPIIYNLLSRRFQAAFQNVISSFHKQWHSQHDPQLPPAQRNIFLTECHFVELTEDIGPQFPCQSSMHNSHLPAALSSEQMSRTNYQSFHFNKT

Regarding `CCCCCCCCCCCCCCCC(=O)N[C@@H](CCC(=O)NCCCC[C@H](NC(=O)[C@H](CCC(N)=O)NC(=O)[C@H](Cc1ccccc1)NC(=O)[C@H](CCC(=O)O)NC(=O)[C@H](CCC(=O)O)NC(=O)[C@H](CC(=O)O)NC(=O)[C@@H](NC(=O)[C@H](CCCNC(=N)N)NC(=O)[C@@H](N)Cc1ccccc1)C(C)C)C(=O)N1CCC[C@H]1C(=O)N[C@@H](Cc1ccccc1)C(=O)N[C@@H](C)C(=O)N[C@@H](CO)C(=O)N[C@@H](CCC(N)=O)C(=O)N[C@@H](CO)C(=O)N[C@@H](CCCNC(=N)N)C(=O)NCC(=O)N[C@@H](Cc1ccc(O)cc1)C(=O)N[C@@H](Cc1ccccc1)C(=O)N[C@@H](CC(C)C)C(=O)N[C@@H](Cc1ccccc1)C(=O)N[C@@H](CCCNC(=N)N)C(=O)N1CCC[C@H]1C(=O)N[C@@H](CCCNC(=N)N)C(=O)N[C@@H](CC(N)=O)C(N)=O)C(=O)O` [SEQ ID NO 11] (H-FRVDEEFQK([γGlu-Palmitoyl])PFASQSRGYFLFRPRN-NH2), a half-maximal response in experiment [1] (EC50) required 94.3 nM. With “H-FRVDEEFQSPFASQSRGYFLFRPRN-NH2 [Human NMU, reference compound]”, the EC50 (usually the midpoint of the concentration-response curve) in experiment [1] was 4.26 nM.

Consider FRVDEEFQSPFASQSRGYFLFRPRN-NH2 [Human neuromedin U], for which the “NMUR1 cAMP EC50” value with Neuromedin U receptor 1 was 2.57 nM.

B1: SEQ ID NO 11 (NMU analog acylated at K9) (peptide)
peptide: FRVDEEFQK([γGlu-Palmitoyl])PFASQSRGYFLFRPRN-NH2
modifications: N-terminus assumed
SMILES: CCCCCCCCCCCCCCCC(=O)N[C@@H](CCC(=O)NCCCC[C@H](NC(=O)[C@H](CCC(N)=O)NC(=O)[C@H](Cc1ccccc1)NC(=O)[C@H](CCC(=O)O)NC(=O)[C@H](CCC(=O)O)NC(=O)[C@H](CC(=O)O)NC(=O)[C@@H](NC(=O)[C@H](CCCNC(=N)N)NC(=O)[C@@H](N)Cc1ccccc1)C(C)C)C(=O)N1CCC[C@H]1C(=O)N[C@@H](Cc1ccccc1)C(=O)N[C@@H](C)C(=O)N[C@@H](CO)C(=O)N[C@@H](CCC(N)=O)C(=O)N[C@@H](CO)C(=O)N[C@@H](CCCNC(=N)N)C(=O)NCC(=O)N[C@@H](Cc1ccc(O)cc1)C(=O)N[C@@H](Cc1ccccc1)C(=O)N[C@@H](CC(C)C)C(=O)N[C@@H](Cc1ccccc1)C(=O)N[C@@H](CCCNC(=N)N)C(=O)N1CCC[C@H]1C(=O)N[C@@H](CCCNC(=N)N)C(=O)N[C@@H](CC(N)=O)C(N)=O)C(=O)O
On to B1, for which the “NMUR1 cAMP EC50” value with Neuromedin U receptor 1 is 74 nM.

B2: SEQ ID NO 5 (NMU analog acylated at K15) (peptide)
peptide: FRVDEEFQSPFASQK([γGlu-Palmitoyl])RGYFLFRPRN-NH2
modifications: N-terminus assumed
SMILES: CCCCCCCCCCCCCCCC(=O)N[C@@H](CCC(=O)NCCCC[C@H](NC(=O)[C@H](CCC(N)=O)NC(=O)[C@H](CO)NC(=O)[C@H](C)NC(=O)[C@H](Cc1ccccc1)NC(=O)[C@@H]1CCCN1C(=O)[C@H](CO)NC(=O)[C@H](CCC(N)=O)NC(=O)[C@H](Cc1ccccc1)NC(=O)[C@H](CCC(=O)O)NC(=O)[C@H](CCC(=O)O)NC(=O)[C@H](CC(=O)O)NC(=O)[C@@H](NC(=O)[C@H](CCCNC(=N)N)NC(=O)[C@@H](N)Cc1ccccc1)C(C)C)C(=O)N[C@@H](CCCNC(=N)N)C(=O)NCC(=O)N[C@@H](Cc1ccc(O)cc1)C(=O)N[C@@H](Cc1ccccc1)C(=O)N[C@@H](CC(C)C)C(=O)N[C@@H](Cc1ccccc1)C(=O)N[C@@H](CCCNC(=N)N)C(=O)N1CCC[C@H]1C(=O)N[C@@H](CCCNC(=N)N)C(=O)N[C@@H](CC(N)=O)C(N)=O)C(=O)O
For the molecule B2, the “NMUR1 cAMP EC50” value with Neuromedin U receptor 1 is 195 nM.

B3: SEQ ID NO 17 (NMU analog acylated at K4) (peptide)
peptide: FRVK([γGlu-Palmitoyl])EEFQSPFASQSRGYFLFRPRN-NH2
modifications: N-terminus assumed
SMILES: CCCCCCCCCCCCCCCC(=O)N[C@@H](CCC(=O)NCCCC[C@H](NC(=O)[C@@H](NC(=O)[C@H](CCCNC(=N)N)NC(=O)[C@@H](N)Cc1ccccc1)C(C)C)C(=O)N[C@@H](CCC(=O)O)C(=O)N[C@@H](CCC(=O)O)C(=O)N[C@@H](Cc1ccccc1)C(=O)N[C@@H](CCC(N)=O)C(=O)N[C@@H](CO)C(=O)N1CCC[C@H]1C(=O)N[C@@H](Cc1ccccc1)C(=O)N[C@@H](C)C(=O)N[C@@H](CO)C(=O)N[C@@H](CCC(N)=O)C(=O)N[C@@H](CO)C(=O)N[C@@H](CCCNC(=N)N)C(=O)NCC(=O)N[C@@H](Cc1ccc(O)cc1)C(=O)N[C@@H](Cc1ccccc1)C(=O)N[C@@H](CC(C)C)C(=O)N[C@@H](Cc1ccccc1)C(=O)N[C@@H](CCCNC(=N)N)C(=O)N1CCC[C@H]1C(=O)N[C@@H](CCCNC(=N)N)C(=O)N[C@@H](CC(N)=O)C(N)=O)C(=O)O
Turning to B3, the “NMUR1 cAMP EC50” value with Neuromedin U receptor 1 was found to be 45.5 nM.

B4: SEQ ID NO 14 (NMU analog acylated at K6) (peptide)
peptide: FRVDEK([γGlu-Palmitoyl])FQSPFASQSRGYFLFRPRN-NH2
modifications: N-terminus assumed
SMILES: CCCCCCCCCCCCCCCC(=O)N[C@@H](CCC(=O)NCCCC[C@H](NC(=O)[C@H](CCC(=O)O)NC(=O)[C@H](CC(=O)O)NC(=O)[C@@H](NC(=O)[C@H](CCCNC(=N)N)NC(=O)[C@@H](N)Cc1ccccc1)C(C)C)C(=O)N[C@@H](Cc1ccccc1)C(=O)N[C@@H](CCC(N)=O)C(=O)N[C@@H](CO)C(=O)N1CCC[C@H]1C(=O)N[C@@H](Cc1ccccc1)C(=O)N[C@@H](C)C(=O)N[C@@H](CO)C(=O)N[C@@H](CCC(N)=O)C(=O)N[C@@H](CO)C(=O)N[C@@H](CCCNC(=N)N)C(=O)NCC(=O)N[C@@H](Cc1ccc(O)cc1)C(=O)N[C@@H](Cc1ccccc1)C(=O)N[C@@H](CC(C)C)C(=O)N[C@@H](Cc1ccccc1)C(=O)N[C@@H](CCCNC(=N)N)C(=O)N1CCC[C@H]1C(=O)N[C@@H](CCCNC(=N)N)C(=O)N[C@@H](CC(N)=O)C(N)=O)C(=O)O
As for B4, the “NMUR1 cAMP EC50” value in the experiment with Neuromedin U receptor 1 was 51.5 nM.

B5: SEQ ID NO 8 (NMU analog acylated at K13) (peptide)
peptide: FRVDEEFQSPFAK([γGlu-Palmitoyl])QSRGYFLFRPRN-NH2
modifications: N-terminus assumed
SMILES: CCCCCCCCCCCCCCCC(=O)N[C@@H](CCC(=O)NCCCC[C@H](NC(=O)[C@H](C)NC(=O)[C@H](Cc1ccccc1)NC(=O)[C@@H]1CCCN1C(=O)[C@H](CO)NC(=O)[C@H](CCC(N)=O)NC(=O)[C@H](Cc1ccccc1)NC(=O)[C@H](CCC(=O)O)NC(=O)[C@H](CCC(=O)O)NC(=O)[C@H](CC(=O)O)NC(=O)[C@@H](NC(=O)[C@H](CCCNC(=N)N)NC(=O)[C@@H](N)Cc1ccccc1)C(C)C)C(=O)N[C@@H](CCC(N)=O)C(=O)N[C@@H](CO)C(=O)N[C@@H](CCCNC(=N)N)C(=O)NCC(=O)N[C@@H](Cc1ccc(O)cc1)C(=O)N[C@@H](Cc1ccccc1)C(=O)N[C@@H](CC(C)C)C(=O)N[C@@H](Cc1ccccc1)C(=O)N[C@@H](CCCNC(=N)N)C(=O)N1CCC[C@H]1C(=O)N[C@@H](CCCNC(=N)N)C(=O)N[C@@H](CC(N)=O)C(N)=O)C(=O)O
Take B5: in the experiment with Neuromedin U receptor 1, the “NMUR1 cAMP EC50” value came to 114 nM.
